Measured values published in the supplement of paper PMC7877785.
± gives the uncertainty stated by the source.

Assay: self-splicing fitness, log relative to wild type (ln ratio); higher = more splicing; Tetrahymena group I intron in knt gene, E. coli kanamycin selection, DiMSum; sequences stand for … in CUCUCU…GGAGGGAAAAGUUAUCAGGCAUGCACCUGGUAGCUAGUCUUUAAACCAAUAGAUUGCAUCGGUUUAAAAGGCAAGACCGUCAAAUUGCGGGAAAGGGGUCAACAGCCGUUCAGUACCAAGUCUCAGGGGAAACUUUGAGAUGGCCUUGCAAAGGGUAUGGUAAUAAGCUGACGGACAUGGUCCUAACCACGCAGCCAAGUCCUAAGUCAACAGAUCUUCUGUUGAUAUGGAUGCAGUUCACAGACUAAAUGUCGGUCGGGGAAGAUGUAUUCUUCUCAUAAGAUAUAGUCGGACCUCUCCUUAAUGGGAGCUAGCGGAUGAAGUGAUGCAACACUGGAGCCGCUGGGAACUAAUUUGUAUGCGAAAGUAUAUUGAUUAGUUUUGGAGUACUCGUGGUCG
Method in brief: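 Pooled colonies went to amplicon sequencing on an Illumina HiSeq 2500 after six replicate transformations. The plates were LB agar with 100 μg/mL carbenicillin, 50 μM IPTG and 0.2% rhamnose, with or without 25 μg/mL kanamycin, incubated overnight at 37°C or 30°C. The E. coli BL21(DE3) library had all eight P1ex-region intron nucleotides randomised, the intron placed in the knt kanamycin-resistance gene on pET-22b(+). DiMSum fitness is the error-weighted combination of replicate fold changes, kanamycin against none, normalised to wild type.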

UUGCAGCAAUAUUACGGGCA
self-splicing fitness (ln) (30 °C): -1.31 ± 0.13
self-splicing fitness (ln) (37 °C): -0.764 ± 0.14

UUGCAGCAAUAUUACGGGGG
self-splicing fitness (ln) (30 °C): -2.4 ± 0.17
self-splicing fitness (ln) (37 °C): -2.23 ± 0.24

UUGCAGCAAUAUUACGGGGU
self-splicing fitness (ln) (30 °C): -4.28 ± 0.2
self-splicing fitness (ln) (37 °C): -2.51 ± 0.18

UUGCAGCAAUAUUACGGUCG
self-splicing fitness (ln) (30 °C): -0.4 ± 0.089
self-splicing fitness (ln) (37 °C): 0.21 ± 0.12

UUGCAGCAAUAUUACGGUUC
self-splicing fitness (ln) (30 °C): -4.6 ± 0.27
self-splicing fitness (ln) (37 °C): -1.67 ± 0.18

UUGCAGCAAUAUUACGUGCU
self-splicing fitness (ln) (30 °C): -3.19 ± 0.22
self-splicing fitness (ln) (37 °C): -1.84 ± 0.22

UUGCAGCAAUAUUACGUGUC
self-splicing fitness (ln) (30 °C): -3.3 ± 0.17
self-splicing fitness (ln) (37 °C): -3.15 ± 0.24

UUGGAGCAAUAUUACGAAUC
self-splicing fitness (ln) (37 °C): -2.58 ± 0.5

UUGGAGCAAUAUUACGAUCG
self-splicing fitness (ln) (30 °C): -2.53 ± 0.24
self-splicing fitness (ln) (37 °C): -1.66 ± 0.2

UUGGAGCAAUAUUACGCGUA
self-splicing fitness (ln) (30 °C): -3.77 ± 0.28
self-splicing fitness (ln) (37 °C): -2.13 ± 0.23

UUGGAGCAAUAUUACGCUGU
self-splicing fitness (ln) (30 °C): -3.36 ± 0.41
self-splicing fitness (ln) (37 °C): -2.35 ± 0.37

UUGGAGCAAUAUUACGGAAG
self-splicing fitness (ln) (30 °C): -3.3 ± 0.44

UUGGAGCAAUAUUACGGACU
self-splicing fitness (ln) (30 °C): -3.18 ± 0.34
self-splicing fitness (ln) (37 °C): -2.65 ± 0.35

UUGGAGCAAUAUUACGGUAU
self-splicing fitness (ln) (30 °C): -2.95 ± 0.26
self-splicing fitness (ln) (37 °C): -1.98 ± 0.28

UUGGAGCAAUAUUACGUACC
self-splicing fitness (ln) (30 °C): -3.52 ± 0.43
self-splicing fitness (ln) (37 °C): -2.01 ± 0.44

UUGGAGCAAUAUUACGUCCU
self-splicing fitness (ln) (30 °C): -2.05 ± 0.2
self-splicing fitness (ln) (37 °C): -0.535 ± 0.17

UUGGAGCAAUAUUACGUGGC
self-splicing fitness (ln) (30 °C): -3.14 ± 0.24
self-splicing fitness (ln) (37 °C): -0.804 ± 0.25

UUGGAGCAAUAUUACGUUAG
self-splicing fitness (ln) (30 °C): -3.62 ± 0.2
self-splicing fitness (ln) (37 °C): -1.49 ± 0.22

UUGGAGCAAUAUUACGUUUU
self-splicing fitness (ln) (30 °C): -1.64 ± 0.19
self-splicing fitness (ln) (37 °C): -2.55 ± 0.18

UUGUAGCAAUAUUACGACCU
self-splicing fitness (ln) (30 °C): -1.39 ± 0.15
self-splicing fitness (ln) (37 °C): -0.134 ± 0.16

UUGUAGCAAUAUUACGACUA
self-splicing fitness (ln) (30 °C): -0.429 ± 0.13
self-splicing fitness (ln) (37 °C): -0.0263 ± 0.16

UUGUAGCAAUAUUACGACUG
self-splicing fitness (ln) (30 °C): -0.0934 ± 0.12
self-splicing fitness (ln) (37 °C): -0.0721 ± 0.14

UUGUAGCAAUAUUACGAUAC
self-splicing fitness (ln) (30 °C): -1.91 ± 0.22

UUGUAGCAAUAUUACGCAUG
self-splicing fitness (ln) (30 °C): -1.86 ± 0.13
self-splicing fitness (ln) (37 °C): 0.0958 ± 0.14

UUGUAGCAAUAUUACGCAUU
self-splicing fitness (ln) (30 °C): -2.84 ± 0.43
self-splicing fitness (ln) (37 °C): -2.26 ± 0.32

UUGUAGCAAUAUUACGCCCG
self-splicing fitness (ln) (30 °C): -0.143 ± 0.22
self-splicing fitness (ln) (37 °C): -0.0661 ± 0.23

UUGUAGCAAUAUUACGCCCU
self-splicing fitness (ln) (30 °C): -0.23 ± 0.24
self-splicing fitness (ln) (37 °C): -0.0821 ± 0.2

UUGUAGCAAUAUUACGCGAC
self-splicing fitness (ln) (37 °C): -0.429 ± 0.37

UUGUAGCAAUAUUACGCGGA
self-splicing fitness (ln) (30 °C): -1.43 ± 0.13
self-splicing fitness (ln) (37 °C): -0.3 ± 0.11

UUGUAGCAAUAUUACGCUAA
self-splicing fitness (ln) (30 °C): -0.865 ± 0.17
self-splicing fitness (ln) (37 °C): -0.386 ± 0.19

UUGUAGCAAUAUUACGGAAU
self-splicing fitness (ln) (30 °C): -1.94 ± 0.15
self-splicing fitness (ln) (37 °C): -3.26 ± 0.32

UUGUAGCAAUAUUACGGAGU
self-splicing fitness (ln) (37 °C): -2.5 ± 0.36

UUGUAGCAAUAUUACGGAUG
self-splicing fitness (ln) (30 °C): -1.9 ± 0.12
self-splicing fitness (ln) (37 °C): -1.56 ± 0.15

UUGUAGCAAUAUUACGGCGC
self-splicing fitness (ln) (37 °C): -2.34 ± 0.2

UUGUAGCAAUAUUACGGCGG
self-splicing fitness (ln) (30 °C): -0.508 ± 0.11
self-splicing fitness (ln) (37 °C): -0.332 ± 0.14

UUGUAGCAAUAUUACGGCGU
self-splicing fitness (ln) (30 °C): -1.2 ± 0.1
self-splicing fitness (ln) (37 °C): -0.999 ± 0.12

UUGUAGCAAUAUUACGGGGU
self-splicing fitness (ln) (30 °C): -3.7 ± 0.46
self-splicing fitness (ln) (37 °C): -2.68 ± 0.27

UUGUAGCAAUAUUACGGGUA
self-splicing fitness (ln) (30 °C): -1.75 ± 0.094
self-splicing fitness (ln) (37 °C): -0.802 ± 0.099

UUGUAGCAAUAUUACGUACU
self-splicing fitness (ln) (30 °C): -0.641 ± 0.12
self-splicing fitness (ln) (37 °C): -0.216 ± 0.14

UUGUAGCAAUAUUACGUCCG
self-splicing fitness (ln) (30 °C): -1.24 ± 0.12
self-splicing fitness (ln) (37 °C): -0.388 ± 0.18

UUGUAGCAAUAUUACGUCCU
self-splicing fitness (ln) (30 °C): -1.48 ± 0.15
self-splicing fitness (ln) (37 °C): -0.583 ± 0.17

UUGUAGCAAUAUUACGUGCG
self-splicing fitness (ln) (30 °C): -1.77 ± 0.15
self-splicing fitness (ln) (37 °C): 0.0928 ± 0.14

UUGUAGCAAUAUUACGUGGA
self-splicing fitness (ln) (30 °C): -2.15 ± 0.15
self-splicing fitness (ln) (37 °C): -0.844 ± 0.12

UUGUAGCAAUAUUACGUUAA
self-splicing fitness (ln) (30 °C): -1.71 ± 0.14
self-splicing fitness (ln) (37 °C): -2.31 ± 0.21

UUUAAGCAAUAUUACGACUU
self-splicing fitness (ln) (30 °C): -2.03 ± 0.12
self-splicing fitness (ln) (37 °C): -0.889 ± 0.12

UUUAAGCAAUAUUACGCAGC
self-splicing fitness (ln) (30 °C): -2.88 ± 0.22
self-splicing fitness (ln) (37 °C): -0.593 ± 0.2

UUUAAGCAAUAUUACGCCAA
self-splicing fitness (ln) (30 °C): -0.939 ± 0.14
self-splicing fitness (ln) (37 °C): 0.281 ± 0.24

UUUAAGCAAUAUUACGCGAU
self-splicing fitness (ln) (30 °C): -3.34 ± 0.43
self-splicing fitness (ln) (37 °C): -2.32 ± 0.29

UUUAAGCAAUAUUACGGAUU
self-splicing fitness (ln) (30 °C): -2.78 ± 0.2
self-splicing fitness (ln) (37 °C): -1.07 ± 0.2
